What was measured:
[1] = target: RE356 (PAS histidine kinase from Rhizobium etli CFN 42) (Rhizobium etli CFN 42); test: SEC-MALS; PAS-HKs MS367 and RE356; mixtures, and monomer and dimer fractions purified separately and reinjected on Superdex 200 GL; HSEC buffer with 1 mM ATP; FPLC at 4 °C, MALS at 25 °C; n = 1
[2] = target: RH376 WT (LOV histidine kinase); test: SEC-MALS; LOV-HKs and RH376 deletion mutants; ~15 μM sample (400 μl) with 1 mM ATP on Superdex 200 GL 10/300 in HSEC buffer (50 mM Hepes pH 7.5, 100 mM NaCl, 10 mM MgCl2, 0.5 mM DTT) with 1 mM ATP; dark (dim red light) and lit (blue LED) runs; FPLC at 4 °C, MALS and refractive index at 25 °C; n = 1; oligomeric state on a qualitative five-bin scale
[3] = target: MS367 (PAS histidine kinase from Methylocella silvestris BL2) (Methylocella silvestris BL2); test: SEC-MALS; PAS-HKs MS367 and RE356; mixtures, and monomer and dimer fractions purified separately and reinjected on Superdex 200 GL; HSEC buffer with 1 mM ATP; FPLC at 4 °C, MALS at 25 °C; n = 1
[4] = target: RT349 (LOV histidine kinase from Rubellimicrobium thermophilum) (Rubellimicrobium thermophilum); test: SEC-MALS; LOV-HKs and RH376 deletion mutants; ~15 μM sample (400 μl) with 1 mM ATP on Superdex 200 GL 10/300 in HSEC buffer (50 mM Hepes pH 7.5, 100 mM NaCl, 10 mM MgCl2, 0.5 mM DTT) with 1 mM ATP; dark (dim red light) and lit (blue LED) runs; FPLC at 4 °C, MALS and refractive index at 25 °C; n = 1; oligomeric state on a qualitative five-bin scale

**Q.** How did the stoichiometry N [1] turn out when “RE356 (PAS histidine kinase from Rhizobium etli CFN 42) (enzyme)” was run?
**A.** 2

**Q.** For “RH376 WT (LOV histidine kinase) (enzyme)”, which stoichiometry N [2] is on record?
**A.** 2

**Q.** With “MS367 (PAS histidine kinase from Methylocella silvestris BL2) (enzyme)” as the substance, how does the stoichiometry N [3] read?
**A.** 2

**Q.** For “RT349 (LOV histidine kinase from Rubellimicrobium thermophilum) (enzyme)”, which stoichiometry N [4] is on record?
**A.** 2
